Test results as given in patent publication US20150306254A1 (REGENTS OF THE UNIVERSITY OF COLORADO A BODY CORPORATE, published 2015).

Experiments:
[1] = biological target: T1, C3d, source and species not stated; test: radiolabeled antibody; method and antigen not stated
T1 construct: domain: C3d; also called 3d antigen; target C3d antigen

recombinant human C3d = biological target: T2, recombinant human C3d (human, UniProt P01024 996-1303, limits assumed); test: SPR, recombinant human C3d fixed to a CM5 chip
T2 construct: domain: C3d; also called wild-type C3d; the C3d immunogen
T2 sequence (P01024 996-1303 limits assumed): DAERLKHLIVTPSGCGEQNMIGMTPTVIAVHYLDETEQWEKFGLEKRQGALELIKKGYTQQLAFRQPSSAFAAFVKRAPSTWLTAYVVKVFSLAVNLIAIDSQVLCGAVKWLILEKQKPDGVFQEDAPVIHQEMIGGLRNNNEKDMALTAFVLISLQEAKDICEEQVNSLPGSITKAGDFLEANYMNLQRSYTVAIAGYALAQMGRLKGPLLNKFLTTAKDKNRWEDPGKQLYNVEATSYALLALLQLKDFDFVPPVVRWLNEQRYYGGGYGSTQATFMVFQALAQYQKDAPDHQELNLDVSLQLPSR
Protocol: FIGS. 12A-12C. […] Surface plasmon resonance was performed using recombinant human C3d fixed to a CM5 chip.
The affinity of clones 3d8b, 3d9, and 3d29 for C3d were tested by surface plasmon resonance (FIG. 12).

recombinant murine C3d = biological target: T3, recombinant murine C3d (murine, UniProt P01027 996-1303, limits assumed); test: direct ELISA
T3 construct: domain: C3d; also called mouse C3d
T3 sequence (P01027 996-1303 limits assumed): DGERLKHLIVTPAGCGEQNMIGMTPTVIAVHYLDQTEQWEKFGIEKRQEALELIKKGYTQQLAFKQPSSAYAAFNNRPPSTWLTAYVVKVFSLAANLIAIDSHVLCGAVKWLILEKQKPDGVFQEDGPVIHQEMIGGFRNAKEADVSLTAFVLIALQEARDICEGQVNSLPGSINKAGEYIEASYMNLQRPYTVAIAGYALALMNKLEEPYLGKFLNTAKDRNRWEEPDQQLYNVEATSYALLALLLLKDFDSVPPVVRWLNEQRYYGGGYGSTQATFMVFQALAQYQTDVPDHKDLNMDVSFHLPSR
Protocol: To confirm that the antibodies reacted with C3d and not with a contaminant in the immunogen, the antibodies were tested against the C3d using a sandwich ELISA in which the recombinant C3d was captured with a polyclonal anti-C3d capture antibody (Table 2). To test reactivity of the clones against murine C3d we performed indirect and sandwich ELISAs using recombinant murine C3d. We also performed direct ELISAs to test binding of the antibodies to recombinant human C3d from a second construct, purified human C3d, and to recombinant cynomologous C3d.
To assess reactivity of antibodies against C3d, ELISAs were performed using purified forms of C3 activation fragments from several different sources (see Reagents section above). Direct ELISAs were performed by affixing 30-50 ng of the C3 fragment to the ELISA plate overnight at 4° C. The plates were blocked with 1% bovine serum albumin in PBS for 2 hours at room temperature. Bound antibodies were then detected with HRP-conjugated anti-mouse IgG (MP Biomedicals, Solon, Ohio). Sandwich ELISAs were performed by incubating polyclonal anti-human C3d antibody (Dako USA, Carpinteria, Calif.) to the ELISA plates in order to capture the C3d. Binding of the antibodies to the captured C3d was then detected as above.

T1 sequence (P01024 1002-1303): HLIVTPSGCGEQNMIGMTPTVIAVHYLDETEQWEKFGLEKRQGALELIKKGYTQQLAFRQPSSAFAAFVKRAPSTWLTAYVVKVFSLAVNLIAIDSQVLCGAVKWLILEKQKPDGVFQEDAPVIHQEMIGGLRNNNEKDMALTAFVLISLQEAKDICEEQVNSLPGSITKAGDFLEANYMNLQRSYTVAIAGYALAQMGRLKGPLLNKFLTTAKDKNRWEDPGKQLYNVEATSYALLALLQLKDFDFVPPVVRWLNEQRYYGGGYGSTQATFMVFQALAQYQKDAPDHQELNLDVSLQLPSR

Kd [1]: 430 pM
Kd (recombinant human C3d): 1060 pM
binding result (recombinant murine C3d): binds
B1: mouse monoclonal antibody 3d29 (antibody, mouse IgG2a, V domains shown)
VH: EVQLQQSGPVLVKPGASVKMSCKASGYTFTDYYMNWVKQSHGKSLEWIGVINPYNGGTSYNQKFKGKATLTVDKSSRTAYMELNSLTSEDSAVYYCSRGGPYWGQGTTLTVSS
VL: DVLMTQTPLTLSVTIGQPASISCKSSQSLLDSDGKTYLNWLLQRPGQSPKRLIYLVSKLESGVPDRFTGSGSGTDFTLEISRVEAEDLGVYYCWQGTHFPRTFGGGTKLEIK
notes: Mouse IgG2a/c (Group I clone); Also used FITC-labelled, biotinylated, radiolabeled and conjugated to SPIO nanoparticles; also called C3d29; 3d29a
